Measurements taken from paper PMC4420465, “A Novel Type II NAD^+-Specific Isocitrate Dehydrogenase from the Marine Bacterium Congregibacter litoralis KT71” (PLoS ONE, 2015).

Experiments:
[1] = target: Congregibacter litoralis KT71 NAD+-specific isocitrate dehydrogenase (recombinant ClIDH) (Congregibacter litoralis KT71); assay: AUC; sedimentation velocity, Beckman XL-A, 20°C, 116,000 g, continuous c(s) distribution; protein of more than 90% purity after gel filtration; single run
[2] = target: Congregibacter litoralis KT71 NAD+-specific isocitrate dehydrogenase (recombinant ClIDH) (Congregibacter litoralis KT71); assay: SEC; gel filtration on a 10/300 Superdex 200 column, 0.05 M potassium phosphate buffer (pH 7.0), 0.15 M NaCl, 0.01% sodium azide; calibrated with ovalbumin, conalbumin, aldolase, ferritin, thyroglobulin
purified protein [3] = substrate: NC(=O)c1ccc[n+]([C@@H]2O[C@H](COP(=O)(O)OP(=O)(O)OC[C@H]3O[C@@H](n4cnc5c(N)ncnc54)[C@H](O)[C@@H]3O)[C@@H](O)[C@H]2O)c1; assay: purified protein; type: biochemical, Congregibacter litoralis; settings: Mn2+ 2 mM, DL-isocitrate 1.5 mM, 35 mM Tris-HCl pH 7.5, 25°C, varied: cofactor
purified protein [4] = substrate: O=C(O)CC(C(=O)O)C(O)C(=O)O; assay: purified protein; type: biochemical, Congregibacter litoralis; settings: Mn2+ 2 mM, NAD+ 1 mM, 35 mM Tris-HCl pH 7.5, 25°C
purified protein [5] = substrate: NC(=O)c1ccc[n+]([C@@H]2O[C@H](COP(=O)(O)OP(=O)(O)OC[C@H]3O[C@@H](n4cnc5c(N)ncnc54)[C@H](OP(=O)(O)O)[C@@H]3O)[C@@H](O)[C@H]2O)c1; assay: purified protein; type: biochemical, Congregibacter litoralis; settings: Mn2+ 2 mM, DL-isocitrate 1.5 mM, 35 mM Tris-HCl pH 7.5, 25°C, varied: cofactor

“Congregibacter litoralis KT71 NAD+-specific isocitrate dehydrogenase (recombinant ClIDH) (enzyme)” was tested, and the stoichiometry N [1] was 6 and the stoichiometry N [2] was 6.

B1: ClIDH (Congregibacter litoralis KT71) (protein)
chain: MSNKIKVEKPLVILHGDEMAQIAFERLLEQFVTSRLDINLLEVDLSAEKRFTTNGQVVLDAIDALIEHGVGIKNAGMTVNRSQLDELLAKYPDVKESELDKLATKSPNGAIRKGIGGNITREDIEFQNLTSVRPDWIDRDIEVDTMDSGGLDFSYSELSNATGVAKVMFVGSSGDPVELHRRTLKKGDPWMLANNSLEEVEAWAHRFFQRALDEKRDIYLGLKDTVVPGYDGVMRAAIEAIYERDYKEKVAAAGLKYHYELIDAQAARIVSNPPERALWGVPDNVSGMKLYKLVQQLKHYGLPERKANVSISRMSAGGGDQYGSYNTPAPEDGIIKVVVDGVEKHARMVKANDPILFMSNDRDAIKDWVKQVFKDASINKKEVYFGLKREFVNYDEVYSSIILEIRKELAALDTPPPSFMIMRPSRQLSKMICDPPRWGLYPAQNLDGDIFSDISAALGGSLATASSVIKSKDGTLLYEAPHGTAHDLYLRYLETDGKEAHFNSSALIFAVANALEEMARREENEALADYAQRLKAALIDTVAQGTITGDLKGKTLDPESENVVDMYGFLDAIEANLNAS
notes: full length 580 residues, 6xHis tag (pET-28b, upstream, kept), E. coli Rosetta (DE3), about 64 kDa subunit, homohexamer
B1 gave a Km (purified protein [3]) of 309.1 ± 11.2 µM, a kcat (purified protein [3]) of 84.7 s⁻¹ and a kcat/Km (purified protein [3]) of 270000 M⁻¹ s⁻¹. For the same molecule, the Km (purified protein [4]) was 90.8 µM.

B2: ClIDH (Congregibacter litoralis KT71; D487R/L488H) (protein)
chain: MSNKIKVEKPLVILHGDEMAQIAFERLLEQFVTSRLDINLLEVDLSAEKRFTTNGQVVLDAIDALIEHGVGIKNAGMTVNRSQLDELLAKYPDVKESELDKLATKSPNGAIRKGIGGNITREDIEFQNLTSVRPDWIDRDIEVDTMDSGGLDFSYSELSNATGVAKVMFVGSSGDPVELHRRTLKKGDPWMLANNSLEEVEAWAHRFFQRALDEKRDIYLGLKDTVVPGYDGVMRAAIEAIYERDYKEKVAAAGLKYHYELIDAQAARIVSNPPERALWGVPDNVSGMKLYKLVQQLKHYGLPERKANVSISRMSAGGGDQYGSYNTPAPEDGIIKVVVDGVEKHARMVKANDPILFMSNDRDAIKDWVKQVFKDASINKKEVYFGLKREFVNYDEVYSSIILEIRKELAALDTPPPSFMIMRPSRQLSKMICDPPRWGLYPAQNLDGDIFSDISAALGGSLATASSVIKSKDGTLLYEAPHGTAHRHYLRYLETDGKEAHFNSSALIFAVANALEEMARREENEALADYAQRLKAALIDTVAQGTITGDLKGKTLDPESENVVDMYGFLDAIEANLNAS
notes: as for B1
B2 showed a Km (purified protein [5]) of 156.7 ± 4.8 µM, a kcat (purified protein [5]) of 55.1 s⁻¹ and a kcat/Km (purified protein [5]) of 350000 M⁻¹ s⁻¹. It also gave a Km (purified protein [3]) of 663.8 ± 48.6 µM, a kcat (purified protein [3]) of 9.7 s⁻¹ and a kcat/Km (purified protein [3]) of 15000 M⁻¹ s⁻¹.
